Columns and labels:
[1] = test system: L929; experiment: In vitro cytotoxic activity towards L929 (crystal violet stain, 48 h); type: cell-based; conditions: L929, 48 h; corrected by comparison with the control TNF standard
Description: 11. IN VITRO CYTOTOXIC ACTIVITY OF HUMAN RECOMBINANT LYMPHOTOXIN (LT) AND DELTA 23, DELTA 24 AND DELTA 25 LT MUTANTS TOWARDS THE TNF- AND LYMPHOTOXIN-SENSITIVE CELL LINES L929 AND WEHI-164
The substance was added the next day in 25 μl of complete culture medium per well. The initial concentration was 10 ng of protein per ml in each case; 2 duplicate titrations were carried out in series. The following controls were also set up on each culture plate: a) only culture medium; b) cells with culture medium but without lymphotoxin; c) a titrated TNF standard of known biological activity. After incubation for a further 48 h under the conditions indicated above, the surviving cells were stained with a solution of crystal violet (15 g of crystal violet, 7 g of NaCl, 646 ml of ethanol, 172.8 ml of 37% formaldehyde made up to 2 1 with H2 O. This entailed the culture medium being drained off and then the cells being stained with 50 μl of the solution at room temperature for 20 min. The culture plates were then washed with water until all the dyestuff which was not cell-bound had been removed. The cell-bound dyestuff was determined by photometry, after addition of 100 μl of measurement solution (50% ethanol, 0.1% acetic acid), at 540 nm using a Titertek Multiscan MCC/340 (Flow Laboratories, Meckenheim). […]

[2] = test system: Balb/c mice; experiment: Determination of acute toxicity, intravenous; type: in vivo
Description: Male Balb/c mice from 4 to 6 weeks of age were used to determine the acute toxicity of the substances under investigation. The animals were randomized (5 animals in each group) and, following a one-week acclimatization period, they received various doses of the test substance (0.25-4.0 mg/kg body weight intravenously, injected into one of the lateral caudal veins). The volume administered was 10 ml/kg body weight; the injection was administered over a period of 10 seconds. The substances had been dissolved in physiological saline solution which contained 0.2% BSA (bovine serum albumin) immediately before the intravenous injection. Animals which received intravenous administration of 10 ml of physiological saline solution per kg of body weight, with 0.2% BSA, acted as controls. […] The following signs were noted: diarrhea, diminished locomotion, piloerection, cyanosis and death; in addition, the body temperature and weight of the animals were determined at regular intervals.

[3] = in vivo studies; cited from earlier work
[4] = test system: primary cell cultures and normal cell lines; conditions: cited from earlier work
[5] = test system: MG-63 tumor cells; experiment: Synergistic cytotoxic activity with recombinant interferon-gamma on tumor cells (72 h, crystal violet); conditions: for factor by which the cytotoxic effect induced by interferon-gamma alone is enhanced: 2 ng/ml interferon-gamma with 2 ng/ml lymphotoxin; for enhancement of the cytotoxicity induced by interferon-gamma (synergistic effect): mean of two independent experiments; for sensitivity / growth inhibition of MG-63 by the single substance: substance alone
Description: 2×10^3 cells in the exponential phase of growth were plated out in complete culture medium (RPMI 1640+10% FCS, both from Flow Laboratories, Meckenheim) in each well of a 96-well plate and were incubated overnight at 37° C. and 5% CO2 in an atmosphere saturated with water vapor. Then, maintaining the interferon-gamma (human recombinant) concentrations constant, the lymphotoxin or the lymphotoxin mutants were subjected to serial 5-fold dilution starting from a concentration of 10 ng/ml protein. The final volume was 150 μl in all the culture wells. Pure culture medium or cultivated cells without the addition of IFN-gamma and/or LT or LT mutants were used as controls. The culture plates were incubated for a further 72 h under the conditions indicated above and were then stained using the crystal violet stain as described under
The synergistic action of lymphotoxins with interferon-gamma was determined as follows:
a) the antiproliferative activity of interferon-gamma was determined from the optical densities of the samples by the following formula: [formula]
b) Determination of the cytotoxic activity of the combination of interferon-gamma and lymphotoxin using formula A.
c) Determination of the synergistic effect of lymphotoxins with interferon-gamma: [formula]
The figures given in the Table were determined as explained above under 12a to 12c and represent the means of two independent experiments.

| Molecule | Activity (one unit = amount which induces 50% lysis of the given number of cells) [1] | time at which signs were detectable (as early as) ([2]; after the injection, especially at higher doses) [h] | severity of observed signs compared between substances ([2]; intravenous) | signs observed after injection ([2]; intravenous, 0.25-4.0 mg/kg) | reversibility of signs ([2]; surviving animals, within the 7-day observation period) | antitumor effect [3] | cytotoxic activity [4] | factor by which the cytotoxic effect induced by interferon-gamma alone is enhanced ([5]; first measurement) | factor by which the cytotoxic effect induced by interferon-gamma alone is enhanced ([5]; second measurement) | enhancement of the cytotoxicity induced by interferon-gamma (synergistic effect) ([5]; IFN-gamma 0.4 ng/ml, lymphotoxin 0.016 ng/ml) | enhancement of the cytotoxicity induced by interferon-gamma (synergistic effect) ([5]; IFN-gamma 0.4 ng/ml, lymphotoxin 0.08 ng/ml) | enhancement of the cytotoxicity induced by interferon-gamma (synergistic effect) ([5]; IFN-gamma 0.4 ng/ml, lymphotoxin 0.4 ng/ml) | enhancement of the cytotoxicity induced by interferon-gamma (synergistic effect) ([5]; IFN-gamma 0.4 ng/ml, lymphotoxin 2 ng/ml) | enhancement of the cytotoxicity induced by interferon-gamma (synergistic effect) ([5]; IFN-gamma 0.4 ng/ml, lymphotoxin 10 ng/ml) | enhancement of the cytotoxicity induced by interferon-gamma (synergistic effect) ([5]; IFN-gamma 2.0 ng/ml, lymphotoxin 0.016 ng/ml) | enhancement of the cytotoxicity induced by interferon-gamma (synergistic effect) ([5]; IFN-gamma 2.0 ng/ml, lymphotoxin 0.08 ng/ml) | enhancement of the cytotoxicity induced by interferon-gamma (synergistic effect) ([5]; IFN-gamma 2.0 ng/ml, lymphotoxin 0.4 ng/ml) | enhancement of the cytotoxicity induced by interferon-gamma (synergistic effect) ([5]; IFN-gamma 2.0 ng/ml, lymphotoxin 2 ng/ml) | enhancement of the cytotoxicity induced by interferon-gamma (synergistic effect) ([5]; IFN-gamma 2.0 ng/ml, lymphotoxin 10 ng/ml) | sensitivity / growth inhibition of MG-63 by the single substance [5] |
| --- | --- | --- | --- | --- | --- | --- | --- | --- | --- | --- | --- | --- | --- | --- | --- | --- | --- | --- | --- | --- |
| LT: lymphotoxin comparison substance, cloned and expressed in E. coli; product was a mixture of lymphotoxin derivatives (protein, UniProt P01374 35-205, looked up) Lymphotoxin-alpha: LPGVGLTPSAAQTARQHPKMHLAHSTLKPAAHLIGDPSKQNSLLWRANTDRAFLQDGFSLSNNSLLVPTSGIYFVYSQVVFSGKAYSPKATSSPLYLAHEVQLFSSQYPFHVPLLSSQKMVYPGLQEPWLHSMYHGAAFQLTQGDQLSTHTDGIPHLVLSPSTVFFGAFAL | 6.1 × 10^7 U/mg protein | 2 | most pronounced | dose- and time-dependent reduction in body temperature and weight and in locomotion, and induced piloerection and diarrhea | completely reversible in the surviving animals | effective antitumor agent | less or nonexistent | 1.57 | 1.41 | 1.42 | 1.87 | 1.75 | 1.89 | 2.16 | 1.15 | 1.27 | 1.40 | 1.49 | 1.61 | not sensitive to lymphotoxin alone |
| interferon-gamma: human recombinant interferon-gamma (protein, UniProt P01579 24-161, looked up) Interferon gamma: QDPYVKEAENLKKYFNAGHSDVADNGTLFLGILKNWKEESDRKIMQSQIVSFYFKLFKNFKDDQSIQKSVETIKEDMNVKFFNSNKKKRDDFEKLTNYSVTDLNVQRKAIHELIQVMAELSPAAKTGKRKRSQMLFRG |  |  |  |  |  |  |  |  |  |  |  |  |  |  |  |  |  |  |  | growth is inhibited dosedependently |

— patent publication US5157106A, “N-terminal deletions of lymphotoxin, their preparation and use” (BASF Aktiengesellschaft, priority 1986, dated 1992)
